Assay results from the DeepSol protein solubility set.

test: soluble on expression in E. coli; label from the status in PepcDB or PDB records

| Sequence | soluble on expression in E. coli |
| --- | --- |
| MAHHHHHHMKAKGFHHSTPNFNTAEFTDAADPSDLANDIVTESAVAVDFARDIYGPWLVMTDDLQGELFVDHDGFVYYRPANGLGYGIGKLQVLDAGATGTAFTCQLESYSYQPTNTVVPQYGLTFDITGMVKRVTAKSSDYKTFSLVGVWRRSNRNKGAPALLPSQRSSSDAAVEGASAALSPESLDNQGALDGPGEKTSGQFNAAKLSPWDPSTAARPFAPNAELQSVFTQVFPERLRAESHVQRAEASRESPAARHLAGCAGKPSLMHLDLEQYATGKIPGIYYIPDYISVAEEAQILTFIHGTPEELKSKLTKRTCQEWGCTMCESCQKSFVSDANMPQWVQEFIDMQVYDGLFTPTTFPNSVRIHEYHQGDGIGPHCDGPIYVPMVTVLSLASSCLMSFYPKQPLYENHPMDHYNDTFKFGEGDIGRRVPLQSVVMEPRSLLIFSGEGYYHYPHGISDKAEEVLTPEVVGEVVNRRFLRDPHVQSIPRTYRASITTRNLMTRCSHQPARAEYAMKRAWYLYNHLPVPSELFTPAPQLPQQQQQPAGVSAGGSSGSRESSDASATRSPQKRVESFFPACAPPGTVAVDTELREAIYEMRARQEDLRNNVEELKQLVALSIPVQTTFQTETATILNHLSSSVLQLESKVDDLLEEVESAKRKSSTDT | not soluble |
| MSLNTWNELTVHVNREAEEAVSNLLIETGSQGVAISDSADYLGQEDRFGELYPEVEQSDMIAITAYYPDTLDIEAVKADLADRLANFEGFGLATGSVNLDSQELVEEDWADNWKKYYEPARITHDLTIVPSWTDYEAKAGEKIIKMDPGMAFGTGTHPTTKMSLFALEQVLRGGETVIDVGTGSGVLSIASSLLGAKDIYAYDLDDVAVRVAQENIDMNPGTENIHVAAGDLLKGVQQEVDVIVANILADILIHLTDDAYRLVKDEGYLIMSGIISEKWDMVRESAEKAGFFLETHMVQGEWNACVFKKTDDISGVIGGEGHHHHHH | soluble |
| MIFYLLPSEKKQSTMDLVKEDYFSIWENREKNRFPELNPYRKELIEYFKVETKPLAPAWRRYNGKFWDSLEFWCLPPEVQQNIIDRGIIISPLFGMLGVNDPIPRYSVTFQDKYKGKKLTEFWKEVLKDISKKMFESSVIFDFLTTEQRETLTFPEDVTFVRFDYIRKGKKVVNPMPHRAYTLRYIVEKNVDLNSLEKINFYDYKVSKIEKEGNVIRVIMESEGRYI | not soluble |
| DVLESTIKAQKSRALNRKNLNYKQLLNTFGSLIGLVFLKSYEQGERTYLGMLSRGYSKDSNIKTLGQK | not soluble |
| STSTFQTRRRRLKKVEEEENAATLQLGQEFQLKQINHQGEEEELIALNLSEARLVIKEALVERRRAFKRSQKKTREKELESIDVLLEQTTGGNNKDLKNTMQYLTNFSRFRDQETVGAVIQLLKSTGLHPFEVAQLGSLACDTADEAKTLIPSLNNKISDDELERILKELSNLETLY | soluble |
| KPAPSAEHSYAEGEGLVKVFDNAPAEFTIFAVDTKGVARTDGGDPFEVAINGPDGLVVDAKVTDNNDGTYGVVYDAPVEGNYNVNVTLRGNPIKNMPIDVKCIEGANGEDSSFGSFTFTVAAKNKKGEVKTYGGDKFEVSITGPAEEITLDAIDNQDGTYTAAYSLVGNGRFSTGVKLNGKHIEGSPFKQVLGNPGKKNPEVKSFTTTRTAN | soluble |
| MEKQEEEDVKRRQRQKAATSLGFLHWEELKNHGDLSKVALNIALTTLVDDASTGFCIMNLVNLIVLRESSQGYLLTYEGKLASLASATYVKAFISLWVLEDAERHAWSFRTFSLTFPLDDPILDTFLELTGVTEAGEFVYAPTTLQSPFHALYFDPQRNSFRRVIYEGLADDEFRRRNRLGYERHHILPNHIESLISL | soluble |
| KNFHVVLEAAWLVRDVKTADDAIGVAISEAGKRLNPKLDFVEVDVGTTSCPVCGEPFSSVFIAANTALVGLIFEMKVFDAESAEHAERIAKSVIGKSLRDVP | not soluble |
| MDLSPLDVRYQEFPRAFRGYHRGAVREYLARVAEAMEALIRENEVLKERLRALEEENARLKEAEGELKRAVVAAERIARELKAQAEREAELLRKEAQAAKERLLQEAAQELKRLRAEIERARQEKALFLGQVRALFEGYLEALKRLEKTP | soluble |
| RTEVVAVALDTSLEELKGRFVESGISKIIVYDGNIDNVVGYIHSSEMFRSPKDWRNHVKEVPIVPETMAAHKLMKLFMQQKKTIAVVVDEFGGTSGIVSLEDLVEEIFGDIEDEHDNTSYICKQIGE | not soluble |
